Data taken from the supplement of paper PMC10567573.

B1: ZBTB22 (parent)
chain: RPFDCPVCNKKFKMKHHLTEHMKT
B2: NP_006221.1 (parent)
chain: CQPISFSGFGAEDDDLGGLGLGP

Variants of: B1
Test: protein stability index of a GFP-peptide fusion (GPS, HEK-293T) (PSI 1-6); higher = more stable
Conditions: c terminus: a fixed tail appended

Variant	protein stability index
P2T	3.84
P2Q	2.76
P2K	2.83
P2I	2.37
P2N	2.34
P2L	2.3
P2E	3.26
P2F	2.72
P2A	2.83
P2M	2.46
P2Y	2.6
P2V	2.12
P2R	2.12
P2G	2.46
P2S	3.39
P2C	2.19
P2W	2.52
P2H	2.97
P2D	3.24

Variant	protein stability index
R1K	2.74
R1G	3.08
R1L	2.35
R1F	2.38
R1I	2.87
R1V	2.74
R1N	2.64
R1H	2.88
R1Q	2.8
R1D	3.31
R1S	2.71
R1T	2.96
R1A	3
R1M	2.71
R1W	2.09
R1P	3.17
R1E	3.67
R1C	3.18
R1Y	2.38

Variant	protein stability index
F3W	2.57
F3I	2.55
F3R	1.98
F3E	2.6
F3Y	3.1
F3M	2.45
F3H	2.56
F3Q	2.86
F3G	2.49
F3C	2.98
F3S	2.58
F3T	3.09
F3L	2.35
F3A	2.58
F3V	2.85
F3D	2.93
F3N	3.06
F3K	2.61
F3P	2.74

Variants of: B2
Test: as above
Conditions: c terminus: native

Variant	protein stability index
G8L	1.97
G8I	2.06
G8T	2.34
G8D	2.05
G8H	1.98
G8S	2.15
G8K	2.48
D15S	2.38
D15P	2.38
D15E	2.15
P3W	1.94
P3Q	2.42
P3I	2.29
P3N	2.2
P3C	2.12
I4Q	2.15
I4H	2.25
I4Y	2.09
I4T	2.47
G20T	3.68
G20F	3.81
G20D	2.58

Variant	protein stability index
G20C	2.51
G20H	2.93
G22Q	2.27
G22A	2.29
G22E	2.13
L16V	2.36
L16K	2.25
L16A	2.59
L16G	2.21
L16I	2.21
D14C	2.12
D14A	2.23
S5I	2.75
S5C	2.16
S5V	2.54
S5R	2.14
S5N	2.4
S5Y	2.25
S5D	2.69
G18S	2.24
G18C	2.35
G18Y	2.18

Variant	protein stability index
G18W	2.57
G18A	2.13
G17D	2.33
G17Y	2.15
G17L	2.2
G17H	2.17
E12V	2.3
E12I	1.94
E12Y	2.12
E12P	2.07
C1F	2.6
C1L	1.97
C1N	2.28
C1M	2.34
C1V	2.27
C1Q	2.37
C1A	2.11
L19A	2.72
L19D	2.39
L19C	2.52
L19S	2.91
L19P	2.7

Variant	protein stability index
L19T	3.02
P23G	2.25
P23T	3.8
P23D	5.01
P23H	3.99
A11W	2.06
A11S	2.22
A11E	2.02
A11R	2.32
A11M	2.04
A11K	2.09
G10V	2.2
G10H	1.99
G10L	2.56
G10A	2.16
G10D	2.51
G10T	1.91
F6Q	4.21
F6M	3.53
F6A	3.88
F9C	2.36
F9V	2.25

Variant	protein stability index
F9R	2.04
F9A	2.58
F9T	2.7
D13H	2.2
D13Y	2.02
D13L	2.27
D13A	2.46
D13V	2.28
L21K	3.95
L21W	4.11
L21N	4.89
L21V	3.37
L21Y	4.14
S7A	1.89
S7C	2.11
S7Y	2.6
S7Q	2.48
S7W	2.42
Q2M	2.16
Q2V	1.98
Q2K	2.22
Q2N	2.31
